In the RNAGym collection of RNA variant scans (doi:10.1073/pnas.2313332121):

B1: TPR t1 (parent)
chain: GACCAAUCUGCCCUCAGAGCUCGAGAACAUCUUCGGAUGCAGAGGAGGCAGGCUUCGGUGGCGCGAUAGCGCCAACGUCCUCAACCUCCAAUGCAUCCCACCACAUGAUGAUGCCUGAAGAGCCUUGGUUUUUUG

Variants of: B1
Test: polymerase ribozyme fitness, log enrichment relative to wild type (log ratio); higher = more active; in vitro selection for triplet polymerase activity
Summary of the method: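 Both subunits of a heterodimeric triplet polymerase ribozyme were given their own mutant library, built by PCR and transcribed. Each library was annealed with a biotinylated primer, the partner subunit and triplets, incubated frozen at −7 °C, and its extended constructs gel-excised, captured on streptavidin beads and amplified by RT-PCR, all in one round done in triplicate. Fitness is the logarithm of genotype enrichment relative to wild-type enrichment, with replicates averaged by inverse-variance weighting. That logarithm is base 2, and Illumina-sequenced genotypes needed ≥10 input reads and ≥1 read per output.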

Variant	polymerase ribozyme fitness (log ratio)
C56G G57U G63U	-3.14
G60A C114A	-1.45
G60A C114U	-1.78
C56U G61A U112G A121U	-6.37
G57C C73A G117C	-4.45
U59A G117A	-1.36
U59G C89A A121G	0.508
G58C A118G G120C	-0.431
C56U C70U U78G U125G	-1.77
C56G A68G	-3.1
C56G A95G	-1.22
G58C A111C U112C	-0.0453
C56G G135U	-1.35
C56G G71C	-3.19
C56G G71U	-3.27
G60A A105U	-1.64
G57C C82G C97U	-1.07
G60A C123G	1.63
C56U U78C U87A	0.212
G58C C70U	-0.846
C56G U87A C115U	-1.94
G60A C124G	1.59
G58C C76U C104A G113U A119C	-6.29
G57U G60C	-3.3

Variant	polymerase ribozyme fitness (log ratio)
U59C C123G	1.95
G57U C82G A95G A111U C123U	-5.66
C56U G69C	-4.69
C56U G69A	-3.53
C56G C64U C80A	-2.96
G60A C88G	-1.54
G60A C88U	-0.511
C56G A68G C73U A95G	-3.3
C56G C70A A83G U96C G120A	-4.37
G57A U96G A105U C123G G127A	-5.35
C56U G65A A83U	-6.42
C56A G71U G122A	-2.05
G60A C89U	-0.18
G58C A118U G127C	-1.14
G58C U126C	-1.22
C56A G71U U81C A111U C115U	-6.9
G58U G71A C79A A103G C115U	-7.13
C56U C70U	-0.666
C56G C88U	-0.184
C56A G69A	-3.3
C56G C73U	-0.89
G57A C123U	-0.636
G57A C114U	-3.27
G57U A119G	1.22

Variant	polymerase ribozyme fitness (log ratio)
G57U G60A C114A U129A	-3.12
C56U C104A	-1.58
G60A C85A	-1.07
U59A C62A A100C U106A C124G	-0.96
C56U G69U C82U A84U	-3
C56U C72U U78A C80A	-4.1
G60A A83C	-0.195
G58U C98U U125A	-1.35
G58U A119G	0.849
U59G A83C C97U	-0.481
G60A C64U	-2.43
C56G G63C C114G	-5.3
C56A G113A	-0.455
C56U G57C C70A U92A	-6.45
C56U C94A A105G	-3.08
C56U G69U A90C C94A C104G G113U G122A	-6.84
C56U G110C	-3.43
C56G C72A	-2.48
C56U A83U	0.108
C56G C70U U96G C101U A111U	-5.15
C56U A84G U133G	-1.14
C56U A84G A91U C98A C99A G120U	-7.08
C56U C97U U106A G127U	-0.714
C56U C82A U106G G117U	-4.65

Variant	polymerase ribozyme fitness (log ratio)
G57A U81A C104U	-1.98
C56G G93A C115A C123U G128U	-4.6
C56U C76A G93A G120C	-4.53
G60A C64G G69U U132A	-0.296
C56U U78G G93U G113A	-2.45
G58U G71A G77A	0.0877
G57A C82U A105G G120U	-4.95
C56U G61U C82A A91G C114U	-6.55
C56A G120C	0.484
C56G G63A	-2.75
G57U U78A G117A G135U	-2.21
C56U U116G	-2.23
C56U U116A	-2.51
C56G C72U C124U	-0.654
G57U C82G G110U	-2.25
G57C C79U G110A	-3.76
C56G C123U	0.748
C56G C123A	0.0294
G57U G93A	0.0639
C56U A111C	-0.414
C56U A83C A121U G127U U133G	1.28
C56A G58C C114U	-2.47
C56G C62U U106A G110U	-0.758
C56G U92C C123A	-1.13

Variant	polymerase ribozyme fitness (log ratio)
G60A A84C	-0.0134
G57A G61A A90G C124A	0.849
C56G A100U	-0.785
U59A C72A U109A	-7.12
U59A G61U	-0.465
G60A G63A C114U	-4.85
G60A A90C	-0.936
G58C A83U C85A U112G U129G	-0.79
C56A G93C	-1.88
C56A G93A	-0.661
G57U U78A C80U	-0.707
C56G G69C U87C G110A	-5.42
U59A G77U	-2.02
C56U C89A U92C G117U	-5.23
U59C C64U U81A	-1.8
G57A U78C U87C C104U G113A	-1.61
U59G G71A	-3.25
U59A C101A C114A	-2.95
C56U G61C	-6.29
U59A G61U A84U	-0.153
C56U C76G	-2.08
G57C C89A G117U A118G U130C G135U	-2.49
C56U C89U	-0.281
G58C G60C A111U	-3.12

Variant	polymerase ribozyme fitness (log ratio)
C56U G69C G71A C79A G113U	-6.83
U59C C70A	-2.41
C56U G110U C114U U125A	-3.23
C56G C101U	-0.0823
G58U C114U	-2.25
U59A A95U G128A	-2.84
G57U C72U A83U A111U	-4.12
C56A U96A	-1.63
C56U A105U	-2.17
G60A A91U	-1.09
C56G U112G	0.023
C56A U87A U106A	-0.176
U59G U92A	-3.4
U59G U81G U96G	-3.9
C56A U106G G110C	-5.41
U59C C101A	-1.32
G58A G135U	-1.49
C56A C123A	0.85
C56U C88A G127C	-1.72
G58A G69A	-2.24
U59C C102A C115G	-4.44
C56U G57C G69C	-0.611
U59C C86U	-1.17
C56G C86A	-1.6

Variant	polymerase ribozyme fitness (log ratio)
C56U C85G A91U C101U U106C	-4.05
U59C G107A	-5.95
G60A C72G C79A U87C U129C	-3.89
U59A C88G	-1.44
G60A C99U	-2.87
U59A C70U	-0.265
U59G G122A	-1.35
G60A C97G G117C	-6.67
C56U C73G	-2
G57U U116A	-3.39
G60A C82U	-0.523
G58A G60C G120C	-3.34
G58A C76U	-0.743
C56U G65C	-5.42
C56G U81A U87A	-1.8
U59A C102U A103C	-5.53
G58A C86U	-0.881
C56G C101U G120A	-0.227
U59C G110A	-1.31
C56U C62U C101U G122A	-2.35
C56G U133A	-0.615
C56U C102A	-1.94
C56U C102U	-2.28
